B1: Translocon at the outer membrane of chloroplasts 64 (Pisum sativum (Garden pea)), Q9MUK5 (parent)
chain: MKSMASPSSQIWVILGLGLAGIYVLTRKLTQAVKEDFGAFLLKLKLLPPPPPAPPKAPHPLSSLNFAISDIFDIEGHVSTFGHPEWARTHEPASSTASAVSALVESGATCIGTTVVDELAYGISGENKHFGTPTNPAVPNRVPGGSSSGAAVAVAANFVDFSLGVDTSGGVRVPAGFCGILGFRPSHGAVSHVGIIPVSTSLDTVGWFAKDPDVLRRVGHILLQAPFVMQRNPRQIIIADDCFQHLNVPLDRTSQVVIKATEKLFGKQVLKHINFEDYISSKVSSLKACSIQKSNGVLKSSSLKLLANVMQSLQRHEFEHTHSEWMSIVKPDLHPAVSAQLHEKFEVSELEIENSKSVRSELRVAVNSLLKDEGVLVIPTVADPPPKLGGKEFLSHDYQSRALSLLSIASISGCCQVTVPLGFFDKNPVSVSLIARHGGDRFLLDTLKTMYTVLQEQADIAAPSKSSKSVVSKEQSAEISKEKGNQAYKDKQWQKAIGFYTEAIKLCGNNATYYSNRAQAYLELGSYLQAEEDCTTAISFDKKNVKAYFRRGTAREMLGYYKEAIDDFKYALVLEPTNKRAASSAERLRKLFQ

In the test the parent is B1. The conditions noted are these: with hs704_arath HSP70-4, Q9LHA8.
As for R550A, the “effect of a mutation on the interaction” value is “decreasing interaction”.
